In the supplement of paper PMC10126150:
± gives the standard deviation of the averaged measurements.

System: ATP
Test: switch fluorescence ratio, 500 uM ATP over buffer (Cy3 cluster intensity, sum of 5 cycles each) (fold (ratio)); higher = stronger signal-on switching upon ATP binding; sequences stand for … in TCGTCGGCAGCGTCAGATGTGTATAAGAGACAGTTTTTTTTTTTTTTTTTTTTTTTTT…TC
Conditions: aptamer strand: ATP DNA aptamer (quencher-CACCTGGGGGAGTATTGCGGAGGAAGG + anchor), 100 nM annealed; ATP concentration: 500 uM
In short: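 Imaging in selection buffer was followed by imaging after 15 min with 500 uM ATP at 22 °C, for Cy3-labelled switching-strand clusters annealed to 100 nM quencher-labelled ATP aptamer on a modified Illumina MiSeq flow-cell. Five of these buffer/ATP cycles ran, separated by NaOH stripping and re-annealing. The fluorescence ratio per cluster is summed target-cycle over summed buffer-cycle Cy3 intensity, averaged per switch-domain sequence; clusters outside 100-1000 RFU were removed.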
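Also: ATP exposure 15 min at 22 °C before imaging.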

Sequence | switch fluorescence ratio
GGGCTTTAAA | 1.01 ± 0.012
ATTATTAGCT | 0.996 ± 0.012
AGGGGAGGAA | 0.994 ± 0.013
AAAATTGACT | 1.002 ± 0.003
AGTTTTAGGT | 1.02 ± 0.036
TCGGTTGTCC | 0.978 ± 0.018
TAGTGCTTTT | 1.01 ± 0.025
TGTCGAGGGC | 0.965 ± 0.021
AATTGCGTGG | 0.988 ± 0.017
AAATTGGACT | 1.02 ± 0.033
AAGGAAATGT | 1 ± 0.014
GGGGGAGACG | 1.03 ± 0.075
GCGCAACTGG | 1.352 ± 0.0074
GATCGGGGGT | 1.01 ± 0.027
GGGTTTGAAA | 1.01 ± 0.067
TGTAAATGTT | 1.03 ± 0.04
TCACGATTTA | 0.99 ± 0.057
GGTGTGTTCT | 0.985 ± 0.011
TTTTAGTCT | 1.01 ± 0.023
GATTTGGTAG | 1 ± 0.023
GTGAATAGTT | 0.995 ± 0.032
GGATGTTATG | 1.016 ± 0.0078
GTAAGAGCGT | 0.996 ± 0.041
ATGCATTGTT | 1 ± 0.027
TGTTGGTGGC | 1.02 ± 0.071
TCTGAGATAT | 0.9872 ± 0.0028

Sequence | switch fluorescence ratio
TGATACACGT | 1 ± 0.013
AGTAGGGGAG | 1.01 ± 0.028
GGTTCAAAGT | 0.9703 ± 0.0047
TAGTGTGGGA | 1 ± 0.043
GGGGTTTACG | 1 ± 0.039
GTATTTTTGC | 1.02 ± 0.024
GGATTCTTAG | 0.986 ± 0.049
GGTTGTAAAA | 0.9867 ± 0.0092
AGATTGGTTA | 0.992 ± 0.021
GGTGTTCGGA | 1 ± 0.031
ATTGGGGGTC | 0.995 ± 0.05
TCGTATGTTA | 0.97 ± 0.014
AGTTAGTTTT | 1 ± 0.017
CGTAGTATAT | 1.25 ± 0.043
ATGGGGGCGA | 0.978 ± 0.014
ATGGGTGCTT | 1.01 ± 0.039
GATCTTGATG | 1.02 ± 0.036
TAAAGCGGGC | 1.05 ± 0.043
ATGAAAGACG | 1.04 ± 0.075
GGGTATCA | 0.954 ± 0.021
GATTGCATGG | 1.02 ± 0.013
TCCGGCTACC | 1.38 ± 0.039
TTTATGTTTG | 1.01 ± 0.035
ACGAGGTTAA | 1.01 ± 0.018
GGCTAGCTAC | 1.09 ± 0.012
ACTAACTTTC | 1.1 ± 0.097

Sequence | switch fluorescence ratio
CAGGGCAGGG | 0.951 ± 0.028
TTTGTAGTCA | 1.05 ± 0.083
CTTTTAGGTA | 0.9425 ± 0.0069
ACTCAGTTCT | 1.03 ± 0.016
CGTATTAGCG | 0.952 ± 0.025
TTCGGGGATT | 1.37 ± 0.58
GGGGCTTAGC | 1.02 ± 0.046
TCTAGGGGGT | 0.9766 ± 0.0071
CCGAGGGTG | 1.81 ± 0.098
ATATAATAGT | 0.991 ± 0.015
GGCATCGCGA | 1.1 ± 0.064
CCTGAAAGGT | 1.003 ± 0.0079
TATAGCCGGG | 1 ± 0.069
GGAATGGGTT | 1.01 ± 0.023
GGTTTTGGAT | 0.986 ± 0.019
TAAGTTATGT | 1.01 ± 0.015
TTAGTAGAGT | 1 ± 0.013
TGAATTCTTG | 1 ± 0.034
CTTTTGGGGT | 0.991 ± 0.01
TTCATAACTT | 0.99 ± 0.018
TTATGCAGGA | 0.955 ± 0.057
CTGAAGGATC | 1.05 ± 0.035
GTTTTTGGGT | 0.984 ± 0.033
TGGAATTTAA | 0.984 ± 0.017
GGGCCAGCTT | 0.988 ± 0.016
CCCTTAGTGT | 1.04 ± 0.031

Sequence | switch fluorescence ratio
TACGTGATTT | 1.14 ± 0.093
AACGGGGGAG | 0.979 ± 0.021
GGAAGTAGGA | 0.98839 ± 0.00067
GATTGGGACT | 0.975 ± 0.027
TGAGGCAGGA | 1.04 ± 0.042
TGAGACGAAA | 1.07 ± 0.052
CAAAAAGGAG | 0.994 ± 0.019
ATGCGTTTTG | 1.01 ± 0.017
TCCTTGGGGT | 1.73 ± 0.97
GTTAGTGTTT | 1.01 ± 0.013
TTATGCACGG | 1.01 ± 0.044
ACCCGCTCTT | 1.13 ± 0.022
AGGTTCCTGT | 0.9944 ± 0.0091
TCGAAAGCTT | 1.34 ± 0.42
AAAGTCCATA | 1.01 ± 0.026
GGGTCCTGGC | 0.985 ± 0.037
ACAGTCGGCG | 1.03 ± 0.021
ATATTGGGCC | 0.997 ± 0.017
GGTGAACGTG | 0.97 ± 0.041
GGGGGGCGTC | 1.02 ± 0.016
AGAGACTATT | 1.01 ± 0.0095
ATATATGGCT | 0.999 ± 0.035
TTCCCGTGCT | 1.022 ± 0.0076
TTTTGGCAGA | 0.982 ± 0.047
CTTTATTTGT | 1.001 ± 0.009
ATGGTTGTTT | 0.995 ± 0.02

Sequence | switch fluorescence ratio
GCGTTAACGG | 1.02 ± 0.011
AGAGTGAGAG | 0.9931 ± 0.0056
TAGTGCCAGA | 1.01 ± 0.012
GGTGGTGGGG | 0.968 ± 0.03
GATTTTTTGG | 0.991 ± 0.034
TTCATGTTGT | 0.984 ± 0.027
TTTTGAGTTT | 0.984 ± 0.028
TTACTTGATG | 1.02 ± 0.031
GGTACTCATT | 0.994 ± 0.034
TTATCTGGAT | 1 ± 0.022
AGACGAGGTA | 1.03 ± 0.05
AATAAGGTTA | 0.984 ± 0.022
GGGGACGAGT | 0.99779 ± 0.00098
TTTATTTTAA | 0.995 ± 0.028
AGGGTTTCCG | 1.03 ± 0.038
GTGTGCTGCA | 1.03 ± 0.092
ATCTAGGTAC | 1.06 ± 0.058
CCTTGGGTAT | 1.01 ± 0.034
TAGTTTTTGG | 0.994 ± 0.032
TTTAAGCGCT | 0.979 ± 0.029
TCATGTAAGT | 0.997 ± 0.02
AATTTGCTTT | 0.986 ± 0.036
GGGTCAGGGA | 1.01 ± 0.065
AAAGGGGTG | 1.06 ± 0.016
ATAAAAGGCG | 1.021 ± 0.0061
TCGGGGGTTA | 1.01 ± 0.023

Sequence | switch fluorescence ratio
TTGTGGGG | 0.992 ± 0.021
CTGTTTCGGT | 0.962 ± 0.021
TCTGAAACCG | 1.18 ± 0.12
AGCCAGGGAG | 1.028 ± 0.0056
TTGTGAAGCA | 1.025 ± 0.0054
AAGGAAGCTT | 1.02 ± 0.1
AGGTTTGCGG | 1.011 ± 0.0037
GTATTTTTGA | 1.003 ± 0.0091
GGTTCGCAGC | 1.15 ± 0.025
AATGTGCCGG | 1.01 ± 0.019
TGGGGGCCTT | 1.02 ± 0.053
TTTGAAATTA | 0.9769 ± 0.003
TCCGGCAAGT | 2.17 ± 0.13
TTTCCTAACT | 1.04 ± 0.039
TAAGACCAGT | 0.981 ± 0.034
AAACCTTGCA | 1.92 ± 0.15
AGAAAAAATG | 0.974 ± 0.05
ACCGTCCAAA | 1.03 ± 0.024
ATCCGGGCGG | 1.02 ± 0.071
AATTTATTGT | 1.003 ± 0.0013
CCATGTTGAG | 0.997 ± 0.0086
CTGGGGGGTT | 0.994 ± 0.019
GAGGTGAGGC | 1.03 ± 0.019
